Publication PMC7826336

Columns and labels:
kallikrein (PKa) = kallikrein (PKa) (UniProt P03952); test: SPR; Pioneer biosensor, COOHV chip; PMSF-treated PK (FC-1) or PKa (FC-3) immobilised by amine coupling; analytes diluted to 250 nM, OneStep gradient injection, 30 uL/min, dissociation 600 s; 22 °C; 10 mM Hepes, 140 mM NaCl, 1.5 mM CaCl2, 40 uM ZnCl2 pH 7.4; simple ka/kd 1 or 2 binding site model
prekallikrein (PK) = test: as above

Sequence of kallikrein (PKa) (P03952 20-390, chain 1 of 2): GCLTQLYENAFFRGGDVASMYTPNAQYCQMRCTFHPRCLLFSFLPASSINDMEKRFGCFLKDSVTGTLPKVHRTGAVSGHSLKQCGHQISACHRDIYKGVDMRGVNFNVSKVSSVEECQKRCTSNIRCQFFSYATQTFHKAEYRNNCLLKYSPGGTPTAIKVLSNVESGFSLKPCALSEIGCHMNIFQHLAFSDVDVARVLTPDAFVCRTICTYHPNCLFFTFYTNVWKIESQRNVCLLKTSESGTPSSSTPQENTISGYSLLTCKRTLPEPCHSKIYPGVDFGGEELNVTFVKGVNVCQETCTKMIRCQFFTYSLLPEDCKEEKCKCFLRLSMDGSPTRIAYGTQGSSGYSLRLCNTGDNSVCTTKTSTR
Sequence of kallikrein (PKa) (P03952 391-638, chain 2 of 2): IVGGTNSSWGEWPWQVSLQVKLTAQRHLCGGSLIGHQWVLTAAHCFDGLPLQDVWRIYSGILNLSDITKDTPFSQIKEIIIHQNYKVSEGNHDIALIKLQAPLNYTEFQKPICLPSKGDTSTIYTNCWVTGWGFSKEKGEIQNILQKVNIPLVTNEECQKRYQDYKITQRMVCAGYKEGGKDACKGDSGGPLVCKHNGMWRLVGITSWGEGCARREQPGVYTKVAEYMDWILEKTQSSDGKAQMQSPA

| Kd (kallikrein (PKa)) [nM] | koff (kallikrein (PKa)) [s⁻¹] | kon (kallikrein (PKa)) [M⁻¹ s⁻¹] | Kd (prekallikrein (PK)) [nM] | koff (prekallikrein (PK)) [s⁻¹] | kon (prekallikrein (PK)) [M⁻¹ s⁻¹] | Substance |
| --- | --- | --- | --- | --- | --- | --- |
| 0.272 | 2.82e-05 | 104000 | 0.245 | 3.73e-05 | 152000 | high molecular weight kininogen (HK) (natural protein) |
|  |  |  | 0.492 | 6.45e-05 | 131000 | activated Factor IX (FIXa) (from UniProt P00740 47-191; P00740 227-461) (enzyme) |
|  |  |  | 2.17 | 0.000239 | 110000 | Factor IX (FIX) (from UniProt P00740 47-461) (natural protein) |
